Literature values, collected in PMC10213764 (Acta Pharmaceutica Sinica. B, 2023).

Details: continuous agitation, 37 °C

native insulin: Native insulin was purchased from Life Technologies
time free from aggregation, formulated with CB[7]‒PEG conjugate: > 100 days
